Test results reported in US20260132180.

Sequence of MMP-2 protease (P08253 110-660): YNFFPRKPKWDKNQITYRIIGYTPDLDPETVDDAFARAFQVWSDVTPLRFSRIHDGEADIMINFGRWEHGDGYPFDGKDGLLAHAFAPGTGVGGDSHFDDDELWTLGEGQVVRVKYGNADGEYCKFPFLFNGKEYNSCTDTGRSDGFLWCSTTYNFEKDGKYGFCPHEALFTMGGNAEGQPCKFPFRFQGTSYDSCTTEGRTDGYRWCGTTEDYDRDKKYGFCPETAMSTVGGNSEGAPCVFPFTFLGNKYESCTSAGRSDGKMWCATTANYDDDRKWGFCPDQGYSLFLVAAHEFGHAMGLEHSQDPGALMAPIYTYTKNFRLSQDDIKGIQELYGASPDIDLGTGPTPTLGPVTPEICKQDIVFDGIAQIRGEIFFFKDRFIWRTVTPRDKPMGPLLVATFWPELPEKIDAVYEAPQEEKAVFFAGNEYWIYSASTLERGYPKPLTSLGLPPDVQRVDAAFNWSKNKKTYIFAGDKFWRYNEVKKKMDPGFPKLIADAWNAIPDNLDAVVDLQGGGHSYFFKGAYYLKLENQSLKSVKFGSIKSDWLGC

## MMP-2 protease
Pro054
Sequence of Pro054 (chain, as listed by the source): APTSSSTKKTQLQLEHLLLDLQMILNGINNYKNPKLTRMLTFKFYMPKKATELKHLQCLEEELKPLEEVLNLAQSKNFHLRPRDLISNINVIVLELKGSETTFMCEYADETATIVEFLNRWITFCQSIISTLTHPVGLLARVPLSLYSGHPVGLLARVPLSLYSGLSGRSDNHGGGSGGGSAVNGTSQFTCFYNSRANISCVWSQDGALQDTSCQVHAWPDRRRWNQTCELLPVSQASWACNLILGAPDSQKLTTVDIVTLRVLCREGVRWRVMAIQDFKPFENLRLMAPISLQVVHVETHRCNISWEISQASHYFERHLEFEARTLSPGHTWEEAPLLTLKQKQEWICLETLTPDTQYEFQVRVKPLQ
  Percentage of cleaved protein determined using WB after incubation with activated MMP-2 protease: Pro054, Pro055, Pro061, and Pro064 were sensitive to MMP-2 digestion and protease-dependent removal of masking and half-life extension domains
Pro061
Sequence of Pro061 (chain, as listed by the source): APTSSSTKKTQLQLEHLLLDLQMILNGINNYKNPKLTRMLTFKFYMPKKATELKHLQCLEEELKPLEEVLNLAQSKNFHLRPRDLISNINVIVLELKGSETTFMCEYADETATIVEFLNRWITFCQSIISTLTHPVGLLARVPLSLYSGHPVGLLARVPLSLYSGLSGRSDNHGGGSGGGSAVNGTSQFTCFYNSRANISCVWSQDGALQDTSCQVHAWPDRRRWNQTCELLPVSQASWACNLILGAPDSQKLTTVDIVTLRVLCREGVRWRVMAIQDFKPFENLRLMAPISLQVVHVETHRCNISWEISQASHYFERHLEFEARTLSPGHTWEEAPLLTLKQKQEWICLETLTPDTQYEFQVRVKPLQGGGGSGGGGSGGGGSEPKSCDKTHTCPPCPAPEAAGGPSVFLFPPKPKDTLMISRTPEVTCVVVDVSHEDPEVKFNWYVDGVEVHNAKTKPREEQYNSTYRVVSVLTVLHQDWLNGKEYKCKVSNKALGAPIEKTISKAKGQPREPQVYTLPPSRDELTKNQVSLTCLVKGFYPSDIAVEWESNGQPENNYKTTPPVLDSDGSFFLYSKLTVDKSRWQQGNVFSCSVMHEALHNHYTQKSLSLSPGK
  Percentage of cleaved protein determined using WB after incubation with activated MMP-2 protease: Pro054, Pro055, Pro061, and Pro064 were sensitive to MMP-2 digestion and protease-dependent removal of masking and half-life extension domains
Pro055
  Percentage of cleaved protein determined using WB after incubation with activated MMP-2 protease: Pro054, Pro055, Pro061, and Pro064 were sensitive to MMP-2 digestion and protease-dependent removal of masking and half-life extension domains
Pro064
Sequence of Pro064 (chain, as listed by the source): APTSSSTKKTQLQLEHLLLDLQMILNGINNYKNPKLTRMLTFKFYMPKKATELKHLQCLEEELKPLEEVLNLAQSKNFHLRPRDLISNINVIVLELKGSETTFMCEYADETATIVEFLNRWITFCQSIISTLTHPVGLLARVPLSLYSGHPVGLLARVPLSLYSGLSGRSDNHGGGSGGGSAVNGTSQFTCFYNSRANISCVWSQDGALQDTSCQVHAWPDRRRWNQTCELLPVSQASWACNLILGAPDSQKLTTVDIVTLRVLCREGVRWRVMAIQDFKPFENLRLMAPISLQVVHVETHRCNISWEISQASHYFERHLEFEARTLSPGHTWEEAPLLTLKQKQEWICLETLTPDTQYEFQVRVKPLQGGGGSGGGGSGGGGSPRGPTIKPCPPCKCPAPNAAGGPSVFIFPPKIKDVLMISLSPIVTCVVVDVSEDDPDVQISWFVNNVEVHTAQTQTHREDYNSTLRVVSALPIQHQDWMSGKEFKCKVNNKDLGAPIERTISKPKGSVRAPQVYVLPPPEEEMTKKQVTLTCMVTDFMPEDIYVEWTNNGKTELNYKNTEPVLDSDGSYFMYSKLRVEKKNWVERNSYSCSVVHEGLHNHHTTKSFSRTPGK
  Percentage of cleaved protein determined using WB after incubation with activated MMP-2 protease: Pro054, Pro055, Pro061, and Pro064 were sensitive to MMP-2 digestion and protease-dependent removal of masking and half-life extension domains
Pro101
  Fraction of cleaved Pro101 determined by WB: effective linker cleavage in Pro101
